Read-outs that look alike come from different tables or passages of the source. Bridges are numbered along the chain shown (N, C = ends). Where no end group is shown, it is not given here. [ ]: non-standard residue; d: D form. Ava = NCCCCC(=O)O
Columns and labels:
[1] = biological target: T1, human MCH receptor expressed from the open reading frame cDNA SEQ. ID. NO. 1 in 293-AEQ17 cells (human, UniProt Q99705 1-353); test: cell-based or functional assay
[2] = biological target: T2, human MCH receptor (membranes from a stable CHO or HEK-293 cell line) (human, UniProt Q99705 1-353); test: competition vs [125I]-human MCH (Phe13,Tyr19); human MCH receptor cell membranes (Example 3)
T2 construct: whole, on cells; also called cloned human MCH receptor (CHO clone)
T2 sequence (Q99705 whole entry): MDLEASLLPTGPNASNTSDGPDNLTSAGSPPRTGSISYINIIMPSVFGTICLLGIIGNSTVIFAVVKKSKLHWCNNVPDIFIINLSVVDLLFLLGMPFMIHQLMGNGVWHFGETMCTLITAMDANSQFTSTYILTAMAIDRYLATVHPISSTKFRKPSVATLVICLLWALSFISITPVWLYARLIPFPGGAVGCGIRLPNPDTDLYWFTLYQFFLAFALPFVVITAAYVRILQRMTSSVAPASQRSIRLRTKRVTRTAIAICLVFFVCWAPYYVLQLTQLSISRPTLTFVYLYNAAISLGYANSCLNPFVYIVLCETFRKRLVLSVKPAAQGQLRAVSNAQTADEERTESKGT

[3] = biological target: T1, human MCH receptor expressed from the …; test: cell-based or functional assay; remark: listed apart in the source
[4] = biological target: T2, human MCH receptor (membranes from a …); test: competition vs [125I]-human MCH (Phe13,Tyr19); human MCH receptor cell membranes (Example 3); remark: listed apart in the source
[5] = biological target: T1, human MCH receptor expressed from the …; test: cell-based or functional assay; remark: listed apart in the source
[6] = biological target: T2, human MCH receptor (membranes from a …); test: SPA competition vs [125I]-human MCH (Phe13,Tyr19); human MCH receptor cell membranes
[7] = biological target: T1, human MCH receptor expressed from the …; test: cell-based or functional assay; remark: listed apart in the source
[8] = biological target: T2, human MCH receptor (membranes from a …); test: competition vs [125I]-human MCH (Phe13,Tyr19); human MCH receptor cell membranes (Example 3); remark: listed apart in the source
[9] = biological target: human MCH receptor (membranes from a stable CHO or HEK-293 cell line) (human) (UniProt Q99705); test: as above
Chain of human MCH receptor (membranes from a stable CHO or HEK-293 cell line) (human) (Q99705 whole entry): as above

[10] = biological target: T1, human MCH receptor expressed from the …; test: cell-based or functional assay; remark: listed apart in the source
[11] = biological target: T2, human MCH receptor (membranes from a …); test: competition vs [125I]-human MCH (Phe13,Tyr19); human MCH receptor cell membranes (Example 3); unit of the concentration '1' not given
[12] = biological target: T2, human MCH receptor (membranes from a …); test: as above; remark: listed apart in the source
[13] = biological target: T1, human MCH receptor expressed from the …; test: cell-based or functional assay; remark: listed apart in the source
[14] = biological target: T1, human MCH receptor expressed from the …; test: cell-based or functional assay; remark: listed apart in the source
[15] = biological target: T2, human MCH receptor (membranes from a …); test: competition vs [125I]-human MCH (Phe13,Tyr19); human MCH receptor cell membranes (Example 3); remark: listed apart in the source
[16] = biological target: T2, human MCH receptor (membranes from a …); test: as above; remark: listed apart in the source
[17] = biological target: T2, human MCH receptor (membranes from a …); test: as above; remark: listed apart in the source

T1 sequence (Q99705 whole entry): as above

B1: MCH analog SEQ. ID. NO. 77 (Nle^8) (peptide)
peptide: RCXLGRVYRPC
modifications: norleucine at position 8; N-terminal acetyl, C-terminal amide, Cys-Cys disulfide as in SEQ. ID. NO. 7
notes: ID; NO; 7 peptide; MCH position numbering
For B1, the Activation % [1] was 105% and the IC50 [2] was 0.5 nM.

B2: MCH analog SEQ. ID. NO. 74 (D-Pro^10,Ava^14,15) (peptide)
peptide: RCMLXRVYXXC
modifications: not fully specified; D-Pro^10; Ava (5-aminopentanoic acid) in place of positions 14,15; N-terminal acetyl, C-terminal amide, Cys-Cys disulfide as in SEQ. ID. NO. 7
notes: as for B1
Work on B2 yielded an Activation % [1] of 3% and an IC50 [2] of 700 nM.

B3: MCH analog SEQ. ID. NO. 15 (D-Arg^6) (peptide)
peptide: XCMLGRVYRPC
modifications: D-Arg^6; N-terminal acetyl, C-terminal amide, Cys-Cys disulfide as in SEQ. ID. NO. 7
notes: as for B1
In the case of B3, the Activation % [3] is reported as 86%, the “EC50” value [3] is reported as 45 nM and the IC50 [4] is reported as 0.46 nM.

B4: truncated MCH analog SEQ. ID. NO. 8: Ac-Arg-Cys-Met-Leu-Gly-Arg-Val-Phe-Arg-Pro-Cys-Tyr-amide (peptide)
peptide: Ac-RCMLGRVFRPCY-NH2
modifications: disulfide 2-11
SMILES: CSCC[C@@H]1NC(=O)[C@@H](NC(=O)[C@H](CCCNC(=N)N)NC(C)=O)CSSC[C@@H](C(=O)N[C@@H](Cc2ccc(O)cc2)C(N)=O)NC(=O)[C@@H]2CCCN2C(=O)[C@H](CCCNC(=N)N)NC(=O)[C@H](Cc2ccccc2)NC(=O)[C@H](C(C)C)NC(=O)[C@H](CCCNC(=N)N)NC(=O)CNC(=O)[C@H](CC(C)C)NC1=O
In the case of B4, the “% Activation at 10 µM” value [5] is reported as 123%, the “EC50” value [5] is reported as 36 nM and the IC50 [6] is reported as 0.16 nM.

B5: MCH analog SEQ. ID. NO. 25 (N-Me-Nle^8) (peptide)
peptide: RCXLGRVYRPC
modifications: N-methyl-norleucine at position 8; N-terminal acetyl, C-terminal amide, Cys-Cys disulfide as in SEQ. ID. NO. 7
notes: as for B1
B5 was tested, and the Activation % [7] was 110%, the “EC50” value [7] was 20 nM and the IC50 [8] was 0.16 nM.

B6: MCH analog SEQ. ID. NO. 72 (Ava^14,15) (peptide)
peptide: Ac-RCMLGRVY[Ava][Ava]C-NH2
modifications: disulfide 2-11
notes: as for B1
In the case of B6, the Activation % [1] is reported as 75%, the “EC50” value [1] is reported as 406 nM and the IC50 [2] is reported as 6.2 nM.

B7: truncated MCH analog SEQ. ID. NO. 9: Ac-Cys-Met-Leu-Gly-Arg-Val-Tyr-Arg-Pro-Cys-amide (peptide)
peptide: Ac-CMLGRVYRPC-NH2
modifications: disulfide 1-10
SMILES: CSCC[C@@H]1NC(=O)[C@@H](NC(C)=O)CSSC[C@@H](C(N)=O)NC(=O)[C@@H]2CCCN2C(=O)[C@H](CCCNC(=N)N)NC(=O)[C@H](Cc2ccc(O)cc2)NC(=O)[C@H](C(C)C)NC(=O)[C@H](CCCNC(=N)N)NC(=O)CNC(=O)[C@H](CC(C)C)NC1=O
For B7, the “% Activation at 10 µM” value [5] was 74%, the “EC50” value [5] was 300 nM and the IC50 [6] was 1.6 nM.

In the case of Ac-RCM[Ava][Ava]RVY[Ava][Ava]C-NH2 (disulfide 2-11; not fully specified) [MCH analog SEQ. ID. NO. 76 (Ava^9,10,Ava^14,15)], the Activation % [1] is reported as 3%, the “EC50” value [1] is reported as greater than 10000 nM and the IC50 [9] is reported as 50 nM.

B8: MCH analog SEQ. ID. NO. 58 (position 10: D-Glu) (peptide)
peptide: RCMLXRVYRPC
modifications: D-Glu at position 10; N-terminal acetyl, C-terminal amide, Cys-Cys disulfide as in SEQ. ID. NO. 7
notes: as for B1
B8 was tested, and the “EC50” value [10] was greater than 10000 nM and the “% @ 1 (in the IC50 column)” value [11] was 40%.

B9: MCH analog SEQ. ID. NO. 26 (N-Me-Leu^9) (peptide)
peptide: RCMXGRVYRPC
modifications: N-methyl-leucine at position 9; N-terminal acetyl, C-terminal amide, Cys-Cys disulfide as in SEQ. ID. NO. 7
notes: as for B1
With B9 the Activation % [7] was 3%, the “EC50” value [7] was greater than 10000 nM and the “% @ 1 (in the IC50 column)” value [12] was 10%.

B10: MCH analog SEQ. ID. NO. 27 (Sar^10) (peptide)
peptide: RCMLXRVYRPC
modifications: sarcosine at position 10; N-terminal acetyl, C-terminal amide, Cys-Cys disulfide as in SEQ. ID. NO. 7
notes: as for B1
In the case of B10, the Activation % [7] is reported as 95% and the IC50 [8] is reported as 2.3 nM.

B11: truncated MCH analog SEQ. ID. NO. 7: Ac-Arg-Cys-Met-Leu-Gly-Arg-Val-Tyr-Arg-Pro-Cys-amide (peptide)
peptide: Ac-RCMLGRVYRPC-NH2
modifications: disulfide 2-11 (inferred)
notes: Corresponds to MCH positions 6-16; also called ID; NO; 7 MCH analog
With B11 the “% Activation at 10 µM” value [5] was 123%, the “EC50” value [5] was 18 nM and the Activation % [3] was 99%. For the same binder, the “EC50” value [3] was 20 nM, the Activation % [7] was 99% and the “EC50” value [7] was 20 nM. The Activation % [13] was 99%, the “EC50” value [13] was 20 nM and the Activation % [10] was 99%. For the same binder, the “EC50” value [10] was 20 nM, the Activation % [14] was 99% and the “EC50” value [14] was 20 nM. The Activation % [1] was 99%, the “EC50” value [1] was 20 nM and the IC50 [6] was 0.12 nM. It also gave an IC50 [4] of 0.5 nM, an IC50 [8] of 1.4 nM and an IC50 [15] of 1.4 nM. It also gave an IC50 [16] of 0.5 nM, an IC50 [17] of 1.4 nM and an IC50 [2] of 1.4 nM.

B12: MCH analog SEQ. ID. NO. 64 (position 13: His) (peptide)
peptide: Ac-RCMLGRVHRPC-NH2
modifications: disulfide 2-11
SMILES: CSCC[C@@H]1NC(=O)[C@@H](NC(=O)[C@H](CCCNC(=N)N)NC(C)=O)CSSC[C@@H](C(N)=O)NC(=O)[C@@H]2CCCN2C(=O)[C@H](CCCNC(=N)N)NC(=O)[C@H](Cc2c[nH]cn2)NC(=O)[C@H](C(C)C)NC(=O)[C@H](CCCNC(=N)N)NC(=O)CNC(=O)[C@H](CC(C)C)NC1=O
notes: as for B1
For B12, the Activation % [14] was 66%, the “EC50” value [14] was 3400 nM and the IC50 [17] was 13.1 nM.

B13: MCH analog SEQ. ID. NO. 63 (position 13: Trp) (peptide)
peptide: Ac-RCMLGRVWRPC-NH2
modifications: disulfide 2-11
SMILES: CSCC[C@@H]1NC(=O)[C@@H](NC(=O)[C@H](CCCNC(=N)N)NC(C)=O)CSSC[C@@H](C(N)=O)NC(=O)[C@@H]2CCCN2C(=O)[C@H](CCCNC(=N)N)NC(=O)[C@H](Cc2c[nH]c3ccccc23)NC(=O)[C@H](C(C)C)NC(=O)[C@H](CCCNC(=N)N)NC(=O)CNC(=O)[C@H](CC(C)C)NC1=O
notes: as for B1
With B13 the Activation % [14] was 83%, the “EC50” value [14] was 890 nM and the IC50 [17] was 3.8 nM.

B14: MCH analog SEQ. ID. NO. 62 (position 13: Phe) (peptide)
peptide: Ac-RCMLGRVFRPC-NH2
modifications: disulfide 2-11
SMILES: CSCC[C@@H]1NC(=O)[C@@H](NC(=O)[C@H](CCCNC(=N)N)NC(C)=O)CSSC[C@@H](C(N)=O)NC(=O)[C@@H]2CCCN2C(=O)[C@H](CCCNC(=N)N)NC(=O)[C@H](Cc2ccccc2)NC(=O)[C@H](C(C)C)NC(=O)[C@H](CCCNC(=N)N)NC(=O)CNC(=O)[C@H](CC(C)C)NC1=O
notes: as for B1
B14 was tested, and the Activation % [14] was 96%, the “EC50” value [14] was 46 nM and the IC50 [17] was 1 nM.

B15: MCH analog SEQ. ID. NO. 70 (Ava^9,10) (peptide)
peptide: Ac-RCM[Ava][Ava]RVYRPC-NH2
modifications: disulfide 2-11; not fully specified
notes: as for B1
B15 showed an Activation % [1] of 82% and an IC50 [2] of 3.7 nM.

B16: truncated MCH analog SEQ. ID. NO. 10: Asp-Phe-Asp-Met-Ieu-Arg-Cys-Met-Ieu-Gly-Arg-Val-Tyr-Arg-Pro-Cys-amide (peptide)
peptide: DFDMLRCMLGRVYRPC-NH2
modifications: disulfide 7-16; N-terminus assumed
SMILES: CSCC[C@@H]1NC(=O)[C@@H](NC(=O)[C@H](CCCNC(=N)N)NC(=O)[C@H](CC(C)C)NC(=O)[C@H](CCSC)NC(=O)[C@H](CC(=O)O)NC(=O)[C@H](Cc2ccccc2)NC(=O)[C@@H](N)CC(=O)O)CSSC[C@@H](C(N)=O)NC(=O)[C@@H]2CCCN2C(=O)[C@H](CCCNC(=N)N)NC(=O)[C@H](Cc2ccc(O)cc2)NC(=O)[C@H](C(C)C)NC(=O)[C@H](CCCNC(=N)N)NC(=O)CNC(=O)[C@H](CC(C)C)NC1=O
In the case of B16, the “% Activation at 10 µM” value [5] is reported as 99% and the IC50 [6] is reported as 0.3 nM.

B17: MCH analog SEQ. ID. NO. 71 (D-Arg^6,Ava^9,10) (peptide)
peptide: Ac-[dR]CM[Ava][Ava]RVYRPC-NH2
modifications: disulfide 2-11; not fully specified
notes: as for B1
B17 was tested, and the Activation % [1] was 72% and the IC50 [2] was 3.7 nM.
